# Source: patent publication US20020028202A1 (Biogen, published 2002)
# Residue numbers refer to the chain shown, from its start.
# T1: human gc chain mutant, FNV replaced by Ala (Domain 1 Loop AB), myc-tagged, on COS-7 cells (human, UniProt P31785 23-369)
# T1 construct: whole, on cells; not shown: 9 amino acid myc tag at the 5' end of the construct
# T1 sequence (looked up): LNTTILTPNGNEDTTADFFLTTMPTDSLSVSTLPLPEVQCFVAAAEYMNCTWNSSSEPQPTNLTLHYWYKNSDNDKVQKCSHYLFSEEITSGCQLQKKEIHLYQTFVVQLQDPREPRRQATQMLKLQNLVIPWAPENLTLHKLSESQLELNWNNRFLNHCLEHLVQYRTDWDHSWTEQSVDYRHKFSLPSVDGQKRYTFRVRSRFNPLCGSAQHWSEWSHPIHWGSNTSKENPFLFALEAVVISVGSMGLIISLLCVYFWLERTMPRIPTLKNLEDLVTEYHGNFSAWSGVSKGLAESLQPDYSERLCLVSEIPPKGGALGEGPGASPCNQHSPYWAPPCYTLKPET
# T2: human gc chain mutant, VEY replaced by Ala (Domain 1 Loop AB), myc-tagged, on COS-7 cells (human, UniProt P31785 23-369)
# T2 construct: whole, on cells; not shown: 9 amino acid myc tag at the 5' end of the construct
# T2 sequence (looked up): T1 sequence (looked up) with A43F, A44N, E46A, Y47A
# T3: human gc chain mutant, KEI replaced by Ala (Domain 1 Loop EF), myc-tagged, on COS-7 cells (human, UniProt P31785 23-369)
# T3 construct: whole, on cells; not shown: 9 amino acid myc tag at the 5' end of the construct
# T3 sequence (looked up): T1 sequence (looked up) with A43F, A44N, A45V, K98A, E99A, I100A
# T4: human gc chain mutant, IHL replaced by Ala (Domain 1 Loop EF), myc-tagged, on COS-7 cells (human, UniProt P31785 23-369)
# T4 construct: whole, on cells; not shown: 9 amino acid myc tag at the 5' end of the construct
# T4 sequence (looked up): T1 sequence (looked up) with A43F, A44N, A45V, I100A, H101A, L102A
# T5: human gc chain mutant, HCL replaced by Ala (Domain 2 Loop BC), myc-tagged, on COS-7 cells (human, UniProt P31785 23-369)
# T5 construct: whole, on cells; not shown: 9 amino acid myc tag at the 5' end of the construct
# T5 sequence (looked up): T1 sequence (looked up) with A43F, A44N, A45V, H159A, C160A, L161A
# B1: CP.B8 monoclonal antibody (murine anti-human gc chain, hybridoma ATCC HB-12107) (antibody, V domains shown)
# VH: LQESGPGLVAPSQSLSITCTVSGFSLTSYGVHWVRQPPGKGLEWLGVIWAGGSTNYNSALMSRLNINRDNSKSQIFLKMNSLQTDDTAIYYCAREGSTVDSMDYWGQGTTVT
# VL: DIVMTQSHKFMSTSVGDSITITCKASQDVTTAVAWYQQKPGQSPKLLIYWASTRHTGVPDRFTGSGSGTDYTLTISSVQAEDLALYYCQQHYITPWTFGGGTKLEI
# notes: Used unconjugated and biotin-conjugated; also called CP.B8 mAb; mAb CP.B8
# Assays:
# Experiment in all cases: staining of transfected COS-7 cells, FACS
# [1] = biological target: T1, human gc chain mutant, FNV replaced by …
# Description: (§1) COS-7 cells are transiently transfected with 20 ug of DNA encoding the gc chain mutant or wildtype cDNA and 180 ug of herring sperm carrier DNA. After 2-3 days, COS-7 cells are harvested and analyzed by immnunofluorescent staining with anti-gc chain mAbs. MAbs are used at 10 ug/ml in PBS-1% BSA-0.02% sodium azide and allowed 30 minutes to bind to 1×10⁶ COS-7 cells. Cells are then washed 2 times, and bound mAb is detected with PE-conjugated goat anti-mouse Fc specific antibodies. The % of positive cells staining with the anti-gc chain mAb over an irrelevant control Ig is determined for a given gc chain mutant and for wildtype gc chain. […] Data are adjusted for any differences in level of expression of a mutant vs. wildtype constructs by measuring the binding of a mAb specific for a 9 amino acid myc tag engineered at the 5′ end of each gc chain construct. […] Values reduced from 100% indicate amino acid mutations which affect mAb binding.
# (§2) The value “100%” indicates no effect of mutation and lower percentages indicate greater losses in binding as a result of the sequence change.
# [2] = biological target: T2, human gc chain mutant, VEY replaced by …
# Description: as §1, §2
# [3] = biological target: T3, human gc chain mutant, KEI replaced by …
# Description: as §1, §2
# [4] = biological target: T4, human gc chain mutant, IHL replaced by …
# Description: as §1, §2
# [5] = biological target: T5, human gc chain mutant, HCL replaced by …
# Description: as §1, §2
binder,measurement,setting,value
B1,% binding to mutant gc chain/wildtype gc chain,[1],9%
same,% binding to mutant gc chain/wildtype gc chain,[2],0%
same,% binding to mutant gc chain/wildtype gc chain,[3],2%
same,% binding to mutant gc chain/wildtype gc chain,[4],0%
same,% binding to mutant gc chain/wildtype gc chain,[5],8%
